The results in this text go back to patent US20260028424A1 (GRANULAR THERAPEUTICS, published 2026).

Substitutions are numbered along the chain they refer to.

B1: MH1/F6.12 bispecific (parental, before pI engineering) (bispecific antibody, V domains shown)
VH 1: QVQLVQSGAEVKKPGASVKVSCKASGYTFTDYYMNWVRQAPGQGLEWMGRIYPGSGNTYYAQKFQGRVTMTRDTSTSTVYMELSSLRSEDTAVYYCARGVYYYDYWGQGTLVTVSS
VH 2: EVQLVQSGAEVKKPGESLKISCKGSGYRFASNWIGWVRQMPGKGLEWMGEIYPGDSNTRYSPSFQGQVTISADKSISTAYLQWSSLKASDTAMYYCARKDYYYGIMDVWGQGTTVTVSS
VL: DIQMTQSPSSLSASVGDRVTITCRASQGIRTNLAWFQQKPGKAPKSLIYAASSLQSGVPSRFSGSGSGTDFTLTISSLQPEDFATYYCQQYNSYPRTFGGGTKVEIK
notes: Knob-in-hole IgG1null bispecific with human Ckappa; also called parental bispecific MH1/F6.12
B2: FJ2156_MH1_A x F6_12B huIgG1 KIH (bispecific antibody, V domains shown)
VH 1: B1 VH 1 with Q1E, G66D
VH 2: B1 VH 2 with E1Q, E46Q
VL: B1 VL
notes: also called MH1_A/F6.12_B
B3: FJ2156_MH1_C x F6_12B huIgG1 KIH (bispecific antibody, V domains shown)
VH 1: B1 VH 1 with K13E, K63N
VH 2: B1 VH 2 with E1Q, E46Q
VL: B1 VL
notes: also called MH1_C/F6.12_B
B4: FJ2156_MH1_A x F6_12C huIgG1 KIH (bispecific antibody, V domains shown)
VH 1: B1 VH 1 with Q1E, G66D
VH 2: B1 VH 2 with E1Q, S61R
VL: B1 VL
notes: also called MH1_A/F6.12_C
B5: MH1_C/F6.12_D bispecific (pI-engineered) (bispecific antibody, V domains shown)
VH 1: B1 VH 1 with K13E, K63N
VH 2: B1 VH 2 with E1Q, S85R
VL: B1 VL
notes: Knob-in-hole IgG1null bispecific with human Ckappa
B6: 1.27/MH1 common light chain bispecific (anti-CD203c 1.27 x anti-c-Kit MH1) (bispecific antibody, V domains shown)
VH 1: B1 VH 1
VH 2: B1 VH 2 with A30T, N32Y, E50I, N57D, G104Y, I105A
VL: B1 VL
notes: as for B5

Sequence of human c-Kit (SPR) (P10721 26-520 limits assumed): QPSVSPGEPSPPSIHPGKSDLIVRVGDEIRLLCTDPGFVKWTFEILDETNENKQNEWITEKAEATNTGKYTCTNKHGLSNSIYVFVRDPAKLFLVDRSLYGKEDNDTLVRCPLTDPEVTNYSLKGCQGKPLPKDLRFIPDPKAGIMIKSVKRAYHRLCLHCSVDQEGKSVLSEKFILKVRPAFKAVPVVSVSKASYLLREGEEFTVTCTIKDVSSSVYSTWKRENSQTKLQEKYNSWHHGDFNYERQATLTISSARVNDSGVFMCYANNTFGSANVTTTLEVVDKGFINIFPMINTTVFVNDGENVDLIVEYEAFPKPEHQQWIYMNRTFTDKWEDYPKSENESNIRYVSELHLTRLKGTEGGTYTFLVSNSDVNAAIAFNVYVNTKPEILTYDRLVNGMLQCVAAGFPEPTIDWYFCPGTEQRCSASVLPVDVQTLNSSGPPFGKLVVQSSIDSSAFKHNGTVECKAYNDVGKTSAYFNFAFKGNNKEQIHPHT
T4 sequence (P10721 26-976 limits assumed): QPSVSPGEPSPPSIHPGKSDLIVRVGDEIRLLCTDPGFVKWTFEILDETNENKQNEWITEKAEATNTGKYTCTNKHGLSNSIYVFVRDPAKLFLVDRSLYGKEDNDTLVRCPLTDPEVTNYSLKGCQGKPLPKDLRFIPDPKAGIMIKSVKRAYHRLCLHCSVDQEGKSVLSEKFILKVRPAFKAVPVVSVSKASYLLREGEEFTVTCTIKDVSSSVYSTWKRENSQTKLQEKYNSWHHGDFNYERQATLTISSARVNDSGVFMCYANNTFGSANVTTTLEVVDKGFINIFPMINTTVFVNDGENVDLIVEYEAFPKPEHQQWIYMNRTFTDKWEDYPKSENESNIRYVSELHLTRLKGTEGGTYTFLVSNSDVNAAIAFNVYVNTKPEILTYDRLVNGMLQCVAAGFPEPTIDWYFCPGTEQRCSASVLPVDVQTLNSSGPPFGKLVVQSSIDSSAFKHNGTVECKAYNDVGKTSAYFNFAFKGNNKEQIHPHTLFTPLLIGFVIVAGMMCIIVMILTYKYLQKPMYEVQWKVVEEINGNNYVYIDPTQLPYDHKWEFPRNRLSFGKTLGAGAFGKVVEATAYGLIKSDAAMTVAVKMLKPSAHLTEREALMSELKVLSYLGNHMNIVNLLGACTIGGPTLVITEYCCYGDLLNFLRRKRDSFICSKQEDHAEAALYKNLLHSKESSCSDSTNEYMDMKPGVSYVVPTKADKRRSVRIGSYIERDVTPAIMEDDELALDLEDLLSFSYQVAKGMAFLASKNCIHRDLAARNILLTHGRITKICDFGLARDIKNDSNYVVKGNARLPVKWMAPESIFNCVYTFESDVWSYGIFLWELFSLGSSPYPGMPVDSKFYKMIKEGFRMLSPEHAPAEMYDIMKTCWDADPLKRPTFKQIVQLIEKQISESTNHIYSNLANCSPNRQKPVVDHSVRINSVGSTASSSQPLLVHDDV

One test has as its target human c-Kit (SPR) (human, UniProt P10721 26-520, limits assumed). In words: SPR, single-cycle kinetics, Human C-kit. For orientation: Surface plasmon resonance follows binding to a sensor surface in real time, without labels.
With B1, the dissociation constant (Kd) (usually a measure of binding affinity in units of concentration) worked out at 0.0451 µM; the koff (as a rule, a measure of how fast the partners let go of each other) came to 0.00978 s⁻¹; the kon (commonly the rate constant with which the complex forms) amounted to 217000 M⁻¹ s⁻¹.

Regarding B2, the Kd is 0.0827 µM, the off-rate constant (koff) was determined as 0.0166 s⁻¹ and the on-rate constant (kon) turned out to be 201000 M⁻¹ s⁻¹.

In turn, B3 displayed a dissociation constant (Kd) of 0.0445 µM, a dissociation rate constant (koff) of 0.00949 s⁻¹ and a kon of 213000 M⁻¹ s⁻¹.

B4 came in with an equilibrium dissociation constant (Kd) of 0.0861 µM, a koff of 0.0171 s⁻¹ and a kon of 199000 M⁻¹ s⁻¹.

B5 returned a Kd of 0.043 µM, a koff of 0.00919 s⁻¹ and an on-rate constant (kon) of 214000 M⁻¹ s⁻¹.

The target of the next test is cyno c-Kit (SPR) (cyno, UniProt F6V858 26-520 (rhesus entry)). The experiment in a line: SPR, single-cycle kinetics, Cynomolgus C-kit.
Sequence of cyno c-Kit (SPR) (chain, as listed by the source): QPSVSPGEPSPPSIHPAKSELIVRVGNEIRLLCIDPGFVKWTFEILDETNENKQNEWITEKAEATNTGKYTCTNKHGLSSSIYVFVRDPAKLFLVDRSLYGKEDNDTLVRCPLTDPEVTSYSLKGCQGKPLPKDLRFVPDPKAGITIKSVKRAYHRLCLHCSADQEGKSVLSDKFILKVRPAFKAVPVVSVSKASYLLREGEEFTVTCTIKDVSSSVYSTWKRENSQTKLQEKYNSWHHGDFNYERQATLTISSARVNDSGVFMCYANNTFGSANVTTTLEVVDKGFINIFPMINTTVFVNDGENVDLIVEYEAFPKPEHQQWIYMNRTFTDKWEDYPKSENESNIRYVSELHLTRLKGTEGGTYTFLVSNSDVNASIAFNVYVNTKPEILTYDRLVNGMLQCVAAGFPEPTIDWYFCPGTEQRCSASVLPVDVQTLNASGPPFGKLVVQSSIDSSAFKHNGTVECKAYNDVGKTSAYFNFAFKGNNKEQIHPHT
In turn, B1 had a dissociation constant (Kd) of 0.0527 µM, a koff of 0.0159 s⁻¹ and an on-rate constant (kon) of 301000 M⁻¹ s⁻¹.

Molecule B2 displayed a dissociation constant (Kd) of 0.0955 µM, a koff of 0.0277 s⁻¹ and an association rate constant (kon) of 291000 M⁻¹ s⁻¹.

Molecule B3 gave a Kd of 0.0524 µM, a koff of 0.0155 s⁻¹ and an association rate constant (kon) of 295000 M⁻¹ s⁻¹.

Regarding B4, the Kd came to 0.0913 µM, the dissociation rate constant (koff) turned out to be 0.0272 s⁻¹ and the kon amounted to 297000 M⁻¹ s⁻¹.

In turn, B5 registered a Kd of 0.0523 µM, a dissociation rate constant (koff) of 0.0152 s⁻¹ and a kon of 291000 M⁻¹ s⁻¹.

In the next test the target is T1, biotinylated cynomolgus CD203c (bio-cyCD203c, Icosagen) (cynomolgus monkey, UniProt A0A2K5TKP4 31-874, biotinylated (site not stated)).
T1 construct: Captured on a Biotin CAPture chip for SPR; also called cyno CD203c
T1 sequence: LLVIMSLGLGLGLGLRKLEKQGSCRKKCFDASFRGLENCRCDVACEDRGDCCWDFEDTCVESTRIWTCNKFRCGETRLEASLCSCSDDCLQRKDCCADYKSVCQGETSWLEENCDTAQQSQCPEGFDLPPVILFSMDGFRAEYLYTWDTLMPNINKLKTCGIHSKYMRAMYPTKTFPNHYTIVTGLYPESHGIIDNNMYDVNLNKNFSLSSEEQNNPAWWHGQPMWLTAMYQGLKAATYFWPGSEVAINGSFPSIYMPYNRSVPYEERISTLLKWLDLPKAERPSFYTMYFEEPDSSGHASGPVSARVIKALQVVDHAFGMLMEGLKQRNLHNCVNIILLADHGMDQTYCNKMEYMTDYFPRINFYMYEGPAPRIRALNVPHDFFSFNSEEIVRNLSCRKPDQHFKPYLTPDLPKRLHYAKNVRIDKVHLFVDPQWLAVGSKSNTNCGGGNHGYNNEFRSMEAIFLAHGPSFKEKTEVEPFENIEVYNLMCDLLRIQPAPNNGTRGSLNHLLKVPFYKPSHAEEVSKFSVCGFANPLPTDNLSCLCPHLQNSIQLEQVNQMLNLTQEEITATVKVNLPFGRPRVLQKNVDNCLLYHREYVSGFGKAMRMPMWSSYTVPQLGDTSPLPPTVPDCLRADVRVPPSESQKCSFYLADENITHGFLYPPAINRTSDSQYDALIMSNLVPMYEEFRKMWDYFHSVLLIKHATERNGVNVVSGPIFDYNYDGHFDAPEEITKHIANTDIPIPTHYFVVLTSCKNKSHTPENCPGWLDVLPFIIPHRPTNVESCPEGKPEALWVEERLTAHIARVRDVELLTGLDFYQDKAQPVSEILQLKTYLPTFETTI
In words: SPR, single-cycle protocol, Bio-cyCD203c; table gives Rmax, Chi2 and KD only.
B2 yielded an equilibrium dissociation constant (Kd) of 0.0682 µM.

Regarding B3, the affinity, expressed as Kd, was 0.0758 µM.

B4 gave a Kd of 0.0518 µM.

Regarding B5, the Kd came out at 0.0631 µM.

The target of a further test is T2, biotinylated human CD203c (bio-huCD203c, Acro, Cat. nr. H52H4) (human, UniProt O14638 49-875, limits assumed, biotinylated (site not stated)).
T2 construct: Captured on a Biotin CAPture chip for SPR
T2 sequence (looked up): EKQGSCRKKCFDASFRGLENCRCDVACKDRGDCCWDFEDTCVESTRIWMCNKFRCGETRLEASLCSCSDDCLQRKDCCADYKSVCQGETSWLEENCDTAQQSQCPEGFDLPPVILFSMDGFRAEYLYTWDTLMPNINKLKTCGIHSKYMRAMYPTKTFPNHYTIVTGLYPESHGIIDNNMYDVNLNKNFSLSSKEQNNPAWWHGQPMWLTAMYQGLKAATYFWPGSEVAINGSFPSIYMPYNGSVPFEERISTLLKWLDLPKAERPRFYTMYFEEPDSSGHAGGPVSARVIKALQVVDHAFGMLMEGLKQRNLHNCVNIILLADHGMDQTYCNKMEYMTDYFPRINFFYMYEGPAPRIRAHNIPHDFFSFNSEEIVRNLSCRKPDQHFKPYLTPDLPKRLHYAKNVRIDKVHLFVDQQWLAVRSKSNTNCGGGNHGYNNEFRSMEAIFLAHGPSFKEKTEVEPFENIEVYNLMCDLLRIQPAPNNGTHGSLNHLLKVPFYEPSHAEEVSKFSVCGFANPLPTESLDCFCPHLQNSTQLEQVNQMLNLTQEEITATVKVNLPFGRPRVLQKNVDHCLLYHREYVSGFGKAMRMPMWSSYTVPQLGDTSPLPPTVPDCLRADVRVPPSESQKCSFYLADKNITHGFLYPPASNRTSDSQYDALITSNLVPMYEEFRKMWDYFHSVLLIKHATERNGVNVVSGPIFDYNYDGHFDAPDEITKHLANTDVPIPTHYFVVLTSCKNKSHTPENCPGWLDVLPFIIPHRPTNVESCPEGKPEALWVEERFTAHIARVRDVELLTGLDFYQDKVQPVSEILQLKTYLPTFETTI
In words: SPR, single-cycle protocol, Bio-huCD203c; table gives Rmax, Chi2 and KD only.
For the molecule B2, the Kd stood at 0.0985 µM.

Molecule B3 showed a dissociation constant Kd of 0.108 µM.

B4 yielded a Kd of 0.0848 µM.

Molecule B5 yielded a Kd of 0.0792 µM.

The target in a further test is T3, human CD203c expressed on the surface of KU812 cells (human, UniProt O14638 1-875).
T3 construct: whole, on cells; also called cell-surface CD203c; cell surface CD203c on KU812 cells
T3 sequence (looked up): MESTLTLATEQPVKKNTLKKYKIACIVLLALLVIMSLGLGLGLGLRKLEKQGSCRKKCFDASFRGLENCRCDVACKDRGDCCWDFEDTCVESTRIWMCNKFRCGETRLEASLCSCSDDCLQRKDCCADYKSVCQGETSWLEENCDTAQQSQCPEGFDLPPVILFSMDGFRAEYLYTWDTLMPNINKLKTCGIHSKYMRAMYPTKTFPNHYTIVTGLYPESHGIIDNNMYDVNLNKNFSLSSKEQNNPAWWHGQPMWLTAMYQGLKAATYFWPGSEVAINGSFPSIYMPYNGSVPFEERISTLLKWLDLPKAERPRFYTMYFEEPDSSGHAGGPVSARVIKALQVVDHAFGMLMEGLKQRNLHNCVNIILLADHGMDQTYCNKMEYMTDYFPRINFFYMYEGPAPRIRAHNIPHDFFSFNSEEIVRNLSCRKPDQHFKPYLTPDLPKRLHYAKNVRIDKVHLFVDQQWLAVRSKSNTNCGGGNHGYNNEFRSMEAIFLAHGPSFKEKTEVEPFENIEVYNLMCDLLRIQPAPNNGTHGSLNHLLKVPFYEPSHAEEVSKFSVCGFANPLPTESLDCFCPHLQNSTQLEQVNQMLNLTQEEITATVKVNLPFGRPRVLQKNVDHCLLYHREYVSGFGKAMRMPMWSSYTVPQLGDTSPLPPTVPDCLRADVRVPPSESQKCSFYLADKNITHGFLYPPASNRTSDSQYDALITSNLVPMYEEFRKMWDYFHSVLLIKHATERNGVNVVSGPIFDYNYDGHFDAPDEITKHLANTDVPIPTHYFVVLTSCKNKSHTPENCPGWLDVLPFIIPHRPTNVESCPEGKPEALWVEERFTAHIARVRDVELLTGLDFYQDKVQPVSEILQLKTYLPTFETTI
The experiment in a line: flow cytometry on KU812 cells, which carry both c-Kit and CD203c; signal not separated by target. The method, then: (§1) All treatments were performed on cells seeded in T75 flasks at a seeding density of 0.3e6/ml. Cells were cultured in the presence of 80 ng/ml of SCF and treated with 20 ng/ml of IL3 24 hours prior to antibody staining. Following SCF/IL3 treatment, cells were harvested and stained with live dead stain (Zombie UV Biolegend 423108). Cells were then stained with a titration of anti-CD203c antibodies/bispecifics or respective isotype controls in a 5-fold dilution series starting at 50 μg/mL and detected with Anti human-Fc AF647 antibody (JIR 109-605-098). Samples were subsequently run on a Yeti analyzer, gating on 10K live cells. Subsequent analysis was performed using FlowJo software and data represented as MFI (median fluorescent intensity).
(§2) The purified proteins were assessed for co-operative binding to both targets, CD203c and c-Kit, on KU812 cells. […] This enhanced binding translates to potent inhibition of c-Kit receptor phosphorylation by the F6/MH1 bispecific molecule when compared to monovalent anti-c-kit, which is shown in FIG. 8.
B6: the binding result is listed as “binds”.

Another test concerns the target T4, c-Kit on KU812 cells (UniProt P10721 26-976, limits assumed).
T4 construct: whole, on cells; also called c-Kit receptor; CD117
The description is as above. On the procedure:
as §1, §2
On to B6, for which the binding result was “binds”.

Another test addresses T3, human CD203c expressed on the surface …. In words: flow cytometry on KU812 cells, which carry both c-Kit and CD203c (median fluorescence intensity); signal not separated by target. On the procedure: as §1
On the technique in general: A flow cytometer gives signals particle by particle.
For B3, the concentration for a half-maximal effect (EC50) (usually the concentration needed to bring the measured effect to its halfway point) was found to be 0.000238 µM.

Another test concerns the target T4, c-Kit on KU812 cells. Described as above. On the procedure: as §1
Molecule B1 returned a 50% effective concentration (EC50) of 0.000548 µM.

B3 gave a concentration for a half-maximal effect (EC50) of 0.000238 µM.

Another test addresses T3, human CD203c expressed on the surface …. In words: flow cytometry on KU812 cells, which carry both c-Kit and CD203c (median fluorescence intensity); signal not separated by target; no unit follows the number, the axis is in nM and the dotted line stands at about 0.2. On the procedure:
as §1
B5 displayed a half-maximal effective concentration (EC50) of 0.000214 µM.

The target in the next test is T4, c-Kit on KU812 cells. The description is as above. The method, then: as §1
In turn, B5 yielded an EC50 of 0.000214 µM.
